Experimental data from patent US20030092616A1, “STAT6 activation gene” (priority 2001, published 2003).

B1: 237 (nucleic acid, listed as Homo sapiens)
chain: TGCGCGTGCGCAGGGATAAGAGAGCGGTCTGGACAGCGCGTGGCCGGCGCCGCTGTGGGGACAGCATGAGCGGCGGTTGGATGGCGCAGGTTGGAGCGTGGCGAACAGGGGCTCTGGGCCTGGCGCTGCTGCTGCTGCTCGGCCTCGGACTAGGCCTGGAGGCCGCCGCGAGCCCGCTTTCCACCCCGACCTCTGCCCAGGCCGCAGGCCCCAGCTCAGGCTCGTGCCCACCCACCAAGTTCCAGTGCCGCACCAGTGGCTTATGCGTGCCCCTCACCTGGCGCTGCGACAGGGACTTGGACTGCAGCGATGGCAGCGATGAGGAGGAGTGCAGGATTGAGCCATGTACCCAGAAAGGGCAATGCCCACCGCCCCCTGGCCTCCCCTGCCCCTGCACCGGCGTCAGTGACTGCTCTGGGGGAACTGACAAGAAACTGCGCAACTGCAGCCGCCTGGCCTGCCTAGCAGGCGAGCTCCGTTGCACGCTGAGCGATGACTGCATTCCACTCACGTGGCGCTGCGACGGCCACCCAGACTGTCCCGACTCCAGCGACGAGCTCGGCTGTGGAACCAATGAGATCCTCCCGGAAGGGGATGCCACAACCATGGGGCCCCCTGTGACCCTGGAGAGTGTCACCTCTCTCAGGAATGCCACAACCATGGGGCCCCCTGTGACCCTGGAGAGTGTCCCCTCTGTCGGGAATGCCACATCCTCCTCTGCCGGAGACCAGTCTGGAAGCCCAACTGCCTATGGGGTTATTGCAGCTGCTGCGGTGCTCAGTGCAAGCCTGGTCACCGCCACCCTCCTCCTTTTGTCCTGGCTCCGAGCCCAGGAGCGCCTCCGCCCACTGGGGTTACTGGTGGCCATGAAGGAGTCCCTGCTGCTGTCAGAACAGAAGACCTCGCTGCCCTGAGGACAAGCACTTGCCACCACCGTCACTCAGCCCTGGGCGTAGCCGGACAGGAGGAGAGCAGTGATGCGGATGGGTACCCGGGCACACCAGCCCTCAGAGACCTGAGCTCTTCTGGCCACGTGGAACCTCGAACCCGAGCTCCTGCAGAAGTGGCCCTGGAGATTGAGGGTCCCTGGACACTCCCTATGGAGATCCGGGGAGCTAGGATGGGGAACCTGCCACAGCCAGAACTGAGGGGCTGGCCCCAGGCAGCTCCCAGGGGGTAGAACGGCCCTGTGCTTAAGACACTCCTGCTGCCCCGTCTGAGGGTGGCGATTAAAGTTGCT
modifications: CDS (66)..(911)
B2: 26 (nucleic acid, listed as Homo sapiens)
chain: AGCCAAGGAGCAATAACTGAACGTTTAAGAAGCTTCAGTATGCATGATTTAACAACTATCCAAGGTGATGAGCCTGTGGGACAAAGACCATACCAACCTCTACCAGAAGCAAAAAAGAAAAGTAAACCAGCCCCCAGTGAATCAGCAGGTTATGGAATTCCACTGAAAGACGGAGATGAGAAAACAGATGAAGAAGCAGAGGGGCCATATTCAGATAATGAGATGTTAACACACAAAGGGCTTCGAAGATCGCAAAGCATGAAATCTGTGAAAACCACCAAAGGCCGCAAAGAGGTGCGGTACGGGTCACTAAAATACAAAGTGAAGAAACGACCACAAGTGTATTTTTAGTCATCTACACGTCAAATATCCCAAGACAGATTATGCTAAATACATCGACTTCATCTTCTAACATGATATATTCAGGATTTACACATTAAAATGATTATTT
modifications: CDS (40)..(348)
B3: 219 (nucleic acid, listed as Homo sapiens)
chain: GTATACCACAGACCAAAGCACCTTTGACATTTTGCAGGATTTGGAGTTTTCTTCTGGGTCCCCAGGTAAAGAGACGAATGAGAGTCCTTGGAGATCAGACCTGTTGATAGATGAAAACTGTTTGCTTTCTCCTCTGGCGGGAGAAGACGATTCATTCCTTTTGGAAGGAAACTCGAATGAGGACTGCAAGCCTCTCATTTTACCGGACACTAAACCCAAAATTAAGGATAATGGAGATCTGGTTTTGTCAAGCCCCAGTAATGTAACACTGCCCCAAGTGAAAACAGAAAAAGAAGATTTCATCGAACTCTGCACCCCTGGGGTAATTAAGCAAGAGAAACTGGGCACAGTTTACTGTCAGGCAAGCTTTCCTGGAGCAAATATAATTGGTAATAAAATGTCTGCCATTTCTGTTCATGGTGTGAGTACCTCTGGAGGACAGATGTACCACTATGACATGAATACAGCATCCCTTTCTCAACAGCAGGATCAGAAGCCTATTTTTAATGTCATTCCACCAATTCCCGTTGGTTCCGAAAATTGGAATAGGTGCCAAGGATCTGGAGATGACAACTTGACTTCTCTGGGGACTCTGAACTTCCCTGGTCGAACAGTTTTTTCTAATGGCTATTCAAGCCCCAGCATGAGACCAGATGTAAGCTCTCCTCCATCCAGCTCCTCAACAGCAACAACAGGACCACCTCCCAAACTCTGCCTGGTGTGCTCTGATGAAGCTTCAGGATGTCATTATGGAGTCTTAACTTGTGGAAGCTGTAAAGTTTTCTTCAAAAGAGCAGTGGAAGGACAGCACAATTACCTATGTGCTGGAAGGAATGATTGCATCATCGATAAAATTCGAAGAAAAAACTGCCCAGCATGCCGCTATCGAAAATGTCTTCAGGCTGGAATGAACCTGGAAGCTCGAAAAAC
modifications: CDS (398)..(928)
B4: 217 (nucleic acid, listed as Homo sapiens)
chain: AAGCAATGCGCAGCAGCCAGATCTGTCCAAAGCAGTTTCACTCTCAATGGGACTGTATATGGGAGAGACAGAAACAAAAGTGATGGGAAATGACCTGGGATTCCCACAGCAGGGCCAAATCAGCCTTTCCTCGGGGGAAACAGACTTAAAGCTTTTGGAAGAAAGCATTGCAAACCTCAATAGGTCGACCAGTGTTCCAGAGAACCCCAAGAGTTCAGCATCCACTGCTGTGTCTGCTGCCCCCACAGAGAAGGAGTTTCCAAAAACTCACTCTGATGTATCTTCAGAACAGCAACATTTGAAGGGCCAGACTGGCACCAACGGTGGCAATGTGAAATTGTATACCACAGACCAAAGCACCTTTGACATTTTGCAGGATTTGGAGTTTTCTTCTGGGTCCCCAGGTAAAGAGACGAATGAGAGTCCTTGGAGATCAGACCTGTTGATAGATGAAAACTGTTTGCTTTCTCCTCTGGCGGGAGAAGACGATTCATTCCTTTTGGAAGGAAACTCGAATGAGGACTGCAAGCCTCTCATTTTACCGGACACTAAACCCAAAATTAAGGATAATGGAGATCTGGTTTTGTCAAGCCCCAGTAATGTAACACTGCCCCAAGTGAAAACAGAAAAAGAAGATTTCATCGAACTCTGCACCCCTGGGGTAATTAAGCAAGAGAAACTGGGCACAGTTTACTGTCAGGCAAGCTTTCCTGGAGCAAATATAATTGGTAATAAAATGTCTGCCATTTCTGTTCATGGTGTGAGTACCTCTGGAGGACAGATGTACCACTATGACATGAATACAGCATCCCTTTCTCAACAGCAGGATCAGAAGCCTATTTTTAATGTCATTCCACCAATTCCCGTTGGTTCCGAAAATTGGAATAGGTGCCAAGGATCTGGAGATGACAACTTGACTTCTCTGGGGACTCTGAACTTCCCTGGTCGAACAGTTTTTTCTAATGGCTATTCAAGCCCCAGCATGAGACCAGATGTAAGCCCTCCTCCATCCAGCTCCTCAACAGCAACAACAGGACCACCTCCCAAACTCTGCCTGGTGTGCTCTGATGAAGCTTCAGGATGTTATTATGGAGTCTTAACTTGTGGAAGCTGTAAAGTTTTCTTCAAAAGAGCAGTGGAAGGACAGCACAATTACCTATGTGCTGGAAGGAATGATTGCATCATCGATAAAATTCGAAGAAAAAACTGCCCAGCATGCCGCTATCGAAAATGTCTTCAGGCTGGAATGAACCTGGAAGCTCG
modifications: CDS (47)..(1261)

system: STAT6; test: Screening of full-length cDNA clones for promotion of STAT6 activation (luciferase reporter N4×8-luc); type: cell-based; settings: NIH3T3 cells cotransfected with N4×8-luc reporter and cDNA plasmid; 48 h culture, then mouse IL-4 0.5 ng/ml for 6 h
Experimental: As a preferable method, NIH3T3 cells are inoculated on 10% FBS (Fetal Bovine Serum)-containing IMDM medium in a 96-well cell culture plate to a final cell density of 1×10^4 cells/well, and cultured for 24 hours at 37° C., in the presence of 5% CO2. Then, the luciferase reporter plasmid N4×8-luc which has a STAT6 response sequence, and the expression vector are cotransfected into the cells in a well using FuGENE 6 (Roche). After 48 hours of culture at 37° C., in the presence of 5% CO2 mouse IL-4 (Immuno Biological Laboratories Co., Ltd.) is added to a final concentration of 0.5 ng/ml. After culturing for further 6 hours, promoting activity for STAT6 activation is then measured by measuring luciferase activity using a long term luciferase assay system, Picagene LT2.0 (Toyo Ink Mfg). For example, luciferase activity can be measured using PerkinElmer's Wallac ARVOTMST 1420 MULTILABEL COUNTER. The method for gene introduction by FuGENE6, and measurement of luciferase activity by Picagene LT2.0 can be performed respectively according to the attached protocols. In a method of gene introduction with a 96-well plate using FuGENE6, the amount of FuGENE6 per 1 well is suitably 0.3 to 0.5 μl, preferably 0.3 μl; the amount of N4×8-luc reporter plasmid is suitably 50 to 100 ng, preferably 100 ng; and the amount of expression vector is suitably 50 to 100 ng, preferably 100 ng. An ability (action) to promote STAT6 activation refers to an ability to increase the reporter activity (luciferase activity) relative to the control experiment (for cells into which the reporter gene and a null vector were introduced). Increase in reporter activity is preferably by a factor of 1.5 or more, more preferably by a factor of 3 or more, and still more preferably by a factor of 6 or more.
NIH3T3 cells (purchased from Dainippon Pharmaceutical) were grown to 1×10^4 cells/well in a 96 well plate for cell culture for 24 hours at 37° C. (in the presence of 5% CO2) using 10% FBS containing IMDM medium. Then, 100 ng of luciferase reporter plasmid N4×8-luc having a STAT6 response sequence and 2 μl of the full-length cDNA prepared in above Example 1.(3) were cotransfected into the cells in a well using FuGENE 6 (purchased from Roche) according to the manufacturer's protocol. The luciferase reporter plasmid N4×8-luc having the STAT6 response sequence was constructed as follows. […] 157, 2058-2065 (1996)], oligonucleotides having the following sequences were synthesized:
The synthesized oligonucleotides were dissolved in sterile water to be 1μg/μl, respectively, mixed in 10 μl lots, and adjusted the volume to 32 μl with sterile water. The solution was heated for 5 min at 90° C., and gradually cooled down to room temperature to prepare a double-stranded oligonucleotide solution. The solution was reacted with T4 polynucleotide kinase (Takara Shuzo) according to the attached manual, then the reaction product was purified in a usual manner. Separately, SV40 promoter region of pGL3-Promoter vector (Promega) was replaced by the HSV thymidine kinase promoter sequence (from −50 to +10) with Hind III site and BglII site to construct a vector tk-luc. The aforesaid double-stranded oligonucleotide fragments were inserted into the XhoI site of this tk-luc vector using T4 DNA ligase (GIBCO/BRL). The obtained clones were sequenced according to a usual method, and clones in which plural oligonucleotide fragments were inserted were selected. […] The four-interlinked DNA fragments were excised from the N4×4-luc with a XhoI and a BglII site and purified to be inserted into a BamHI and a XhoI site of pBluescript II KS+ (Stratagene). The four-interlinked DNA fragments were excised from this plasmid with KpnI and SpeI and inserted into a KpnI and a NheI site of N4×4-luc plasmid to finally obtain N4×8-luc.

Q: With B1 as the molecule, how does the “Activity = (luciferase activity of the gene of each SEQ ID NO:)/(luciferase activity of pME18S-FL3)” value read?
A: 105.1

Q: With B2 as the molecule, how does the “Activity = (luciferase activity of the gene of each SEQ ID NO:)/(luciferase activity of pME18S-FL3)” value read?
A: 33.5

Q: How did the “Activity = (luciferase activity of the gene of each SEQ ID NO:)/(luciferase activity of pME18S-FL3)” value turn out when B3 was run?
A: 12.7

Q: Which “Activity = (luciferase activity of the gene of each SEQ ID NO:)/(luciferase activity of pME18S-FL3)” value does the source give for B4 here?
A: 1521.5
